# Results: patent publication US20100015650
# T1: BRB1 tyrosine kinase substrate peptide
# T1 chain: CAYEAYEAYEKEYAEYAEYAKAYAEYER
# Target: T1, BRB1 tyrosine kinase substrate peptide
protein,measurement,value
MET (protein) KKRKQIKDLGSELVRYDARVHTPHLDRLVSARSVSPTTEMVSNESVDYRATFPEDQFPNSSQNGSCRQVQYPLTDMSPILTSGDSDISSPLLQNTVHIDLSALNPELVQAVQHVVIGPSSLIVHFNEVIGRGHFGCVYHGTLLDNDGKKIHCAVKSLNRITDIGEVSQFLTEGIIMKDFSHPNVLSLLGICLRSEGSPLVVLPYMKHGDLRNFIRNETHNPTVKDLIGFGLQVAKGMKYLASKKFVHRDLAARNCMLDEKFTVKVADFGLARDMYDKEYYSVHNKTGAKLPVKWMALESLQTQKFTTKSDVWSFGVLLWELMTRGAPPYPDVNTFDITVYLLQGRRLLQPEYCPDPLYEVMLKCWHPKAEMRPSFSELVSRISAIFSTFIGEHYVHVNATYVNVKCVAPYPSLLSSEDNADDEVDTRPASFWETS,Signal to Noise ratio with BRB1 Peptide (TR-FRET kinase assay; kinase 0.5 nM),24.2
MER (protein) KRVQETKFGNAFTEEDSELVVNYIAKKSFCRRAIELTLHSLGVSEELQNKLEDVVIDRNLLILGKILGEGEFGSVMEGNLKQEDGTSLKVAVKTMKLDNSSQREIEEFLSEAACMKDFSHPNVIRLLGVCIEMSSQGIPKPMVILPFMKYGDLHTYLLYSRLETGPKHIPLQTLLKFMVDIALGMEYLSNRNFLHRDLAARNCMLRDDMTVCVADFGLSKKIYSGDYYRQGRIAKMPVKWIAIESLADRVYTSKSDVWAFGVTMWEIATRGMTPYPGVQNHEMYDYLLHGHRLKQPEDCLDELYEIMYSCWRTDPLDRPTFSVLRLQLEKLLESLPDVRNQADVIYVNTQLLESSEGLAQGSTLAPLDLNIDPDSIIASCTPRAAISVVTAEVHDSKPHEGRYILNGGSEEWEDLTSAPSAAVTAEKNSVLPGERLVRNGVSWSHSSMLPLGSSLPDELLFADDSSEGSEVLM,Signal to Noise ratio with BRB1 Peptide (TR-FRET kinase assay; kinase 0.25 nM),12.9
PDGFRa (protein) KQKPRYEIRWRVIESISPDGHEYIYVDPMQLPYDSRWEFPRDGLVLGRVLGSGAFGKVVEGTAYGLSRSQPVMKVAVKMLKPTARSSEKQALMSELKIMTHLGPHLNIVNLLGACTKSGPIYIITEYCFYGDLVNYLHKNRDSFLSHHPEKPKKELDIFGLNPADESTRSYVILSFENNGDYMDMKQADTTQYVPMLERKEVSKYSDIQRSLYDRPASYKKKSMLDSEVKNLLSDDNSEGLTLLDLLSFTYQVARGMEFLASKNCVHRDLAARNVLLAQGKIVKICDFGLARDIMHDSNYVSKGSTFLPVKWMAPESIFDNLYTTLSDVWSYGILLWEIFSLGGTPYPGMMVDSTFYNKIKSGYRMAKPDHATSEVYEIMVKCWNSEPEKRPSFYHLSEIVENLLPGQYKKSYEKIHLDFLKSDHPAVARMRVDSDNAYIGVTYKNEEDKLKDWEGGLDEQRLSADSGYIIPLPDIDPVPEEEDLGKRNRHSSQTSEESAIETGSSSSTFIKREDETIEDIDMMDDIGIDSSDLVEDSFL,Signal to Noise ratio with BRB1 Peptide (TR-FRET kinase assay; kinase 0.5 nM),8
RET (protein) HCYHKFAHKPPISSAEMTFRRPAQAFPVSYSSSGARRPSLDSMENQVSVDAFKILEDPKWEFPRKNLVLGKTLGEGEFGKVVKATAFHLKGRAGYTTVAVKMLKENASPSELRDLLSEFNVLKQVNHPHVIKLYGACSQDGPLLLIVEYAKYGSLRGFLRESRKVGPGYLGSGGSRNSSSLDHPDERALTMGDLISFAWQISQGMQYLAEMKLVHRDLAARNILVAEGRKMKISDFGLSRDVYEEDSYVKRSQGRIPVKWMAIESLFDHIYTTQSDVWSFGVLLWEIVTLGGNPYPGIPPERLFNLLKTGHRMERPDNCSEEMYRLMLQCWKQEPDKRPVFADISKDLEKMMVKRRDYLDLAASTPSDSLIYDDGLSEEETPLVDCNNAPLPRALPSTWIENKLYGMSDPNWPGESPVPLTRADGTNTGFPRYPNDSVYANWMLSPSAAKLMDTFDS,Signal to Noise ratio with BRB1 Peptide (TR-FRET kinase assay; kinase 0.5 nM),20.3
BMX (protein) MDTKSILEELLLKRSQQKKKMSPNNYKERLFVLTKTNLSYYEYDKMKRGSRKGSIEIKKIRCVEKVNLEEQTPVERQYPFQIVYKDGLLYVYASNEESRSQWLKALQKEIRGNPHLLVKYHSGFFVDGKFLCCQQSCKAAPGCTLWEAYANLHTAVNEEKHRVPTFPDRVLKIPRAVPVLKMDAPSSSTTLAQYDNESKKNYGSQPPSSSTSLAQYDSNSKKIYGSQPNFNMQYIPREDFPDWWQVRKLKSSSSSEDVASSNQKERNVNHTTSKISWEFPESSSSEEEENLDDYDWFAGNISRSQSEQLLRQKGKEGAFMVRNSSQVGMYTVSLFSKAVNDKKGTVKHYHVHTNAENKLYLAENYCFDSIPKLIHYHQHNSAGMITRLRHPVSTKANKVPDSVSLGNGIWELKREEITLLKELGSGQFGVVQLGKWKGQYDVAVKMIKEGSMSEDEFFQEAQTMMKLSHPKLVKFYGVCSKEYPIYIVTEYISNGCLLNYLRSHGKGLEPSQLLEMCYDVCEGMAFLESHQFIHRDLAARNCLVDRDLCVKVSDFGMTRYVLDDQYVSSVGTKFPVKWSAPEVFHYFKYSSKSDVWAFGILMWEVFSLGKQPYDLYDNSQVVLKVSQGHRLYRPHLASDTIYQIMYSCWHELPEKRPTFQQLLSSIEPLREKDKH,Signal to Noise ratio with BRB1 Peptide (TR-FRET kinase assay; kinase 0.5 nM),7.1
PDGFRβ (protein) QKKPRYEIRWKVIESVSSDGHEYIYVDPMQLPYDSTWELPRDQLVLGRTLGSGAFGQVVEATAHGLSHSQATMKVAVKMLKSTARSSEKQALMSELKIMSHLGPHLNVVNLLGACTKGGPIYIITEYCRYGDLVDYLHRNKHTFLQHHSDKRRPPSAELYSNALPVGLPLPSHVSLTGESDGGYMDMSKDESVDYVPMLDMKGDVKYADIESSNYMAPYDNYVPSAPERTCRATLINESPVLSYMDLVGFSYQVANGMEFLASKNCVHRDLAARNVLICEGKLVKICDFGLARDIMRDSNYISKGSTFLPLKWMAPESIFNSLYTTLSDVWSFGILLWEIFTLGGTPYPELPMNEQFYNAIKRGYRMAQPAHASDEIYEIMQKCWEEKFEIRPPFSQLVLLLERLLGEGYKKKYQQVDEEFLRSDHPAILRSQARLPGFHGLRSPLDTSSVLYTAVQPNEGDNDYIIPLPDPKPEVADEGPLEGSPSLASSTLNEVNTSSTISCDSPLEPQDEPEPEPQLELQVEPEPELEQLPDSGCPAPRAEAEDSFL,Signal to Noise ratio with BRB1 Peptide (TR-FRET kinase assay; kinase 0.25 nM),4.7
MUSK (protein) CCRRRKQWKNKKRESAAVTLTTLPSELLLDRLHPNPMYQRMPLLLNPKLLSLEYPRNNIEYVRDIGEGAFGRVFQARAPGLLPYEPFTMVAVKMLKEEASADMQADFQREAALMAEFDNPNIVKLLGVCAVGKPMCLLFEYMAYGDLNEFLRSMSPHTVCSLSHSDLSMRAQVSSPGPPPLSCAEQLCIARQVAAGMAYLSERKFVHRDLATRNCLVGENMVVKIADFGLSRNIYSADYYKANENDAIPIRWMPPESIFYNRYTTESDVWAYGVVLWEIFSYGLQPYYGMAHEEVIYYVRDGNILSCPENCPVELYNLMRLCWSKLPADRPSFTSIHRILERMCERAEGTVSV,Signal to Noise Ratio with BRB1 Peptide (TR-FRET kinase assay; kinase 1 nM),3.1
LTK (protein) KQKKWQGLQEMRLPSPELELSKLRTSAIRTAPNPYYCQVGLGPAQSWPLPPGVTEVSPANVTLLRALGHGAFGEVYEGLVIGLPGDSSPLQVAIKTLPELCSPQDELDFLMEALIISKFRHQNIVRCVGLSLRATPRLILLELMSGGDMKSFLRHSRPHLGQPSPLVMRDLLQLAQDIAQGCHYLEENHFIHRDIAARNCLLSCAGPSRVAKIGDFGMARDIYRASYYRRGDRALLPVKWMPPEAFLEGIFTSKTDSWSFGVLLWEIFSLGYMPYPGRTNQEVLDFVVGGGRMDPPRGCPGPVYRIMTQCWQHEPELRPSFASILERLQYCTQDPDVLNSLLPMELGPTPEEEGTSGLGNRSLECLRPPQPQELSPEKLKSWGGSPLGPWLSSGLKPLKSRGLQPQNLWNPTYRS,Signal to Noise Ratio with BRB1 Peptide (TR-FRET kinase assay; kinase 1 nM),13.7
